According to patent publication US20240115722A1 (RUTGERS THE STATE UNIVERSITY OF NEW JERSEY, published 2024):

What follows are binders tested against T1, recombinant human EphA5 (rhEphA5) antigen (human, UniProt P54756 25-573) (assay: SPR single-cycle kinetics (Biacore T200), IgG from HEK supernatant captured on anti-human IgG CM5 chip, rhEphA5 as analyte, 1:1 fit).
T1 construct: also called human EphA5 (R and D systems, Cat. No. 3036-A5); recombinant EphA5
Set-up: Relative KD: reference not given here
Description: Kinetic analysis was carried out on a Biacore T200. Each antibody was captured on a CM5 chip coupled with an anti-human IgG using standard amine chemistry before increasing concentrations of antigen were injected and a single off-rate was determined.
Kinetic experiments were performed at 25° C. on a Biacore T200 running Biacore T200 Control software V2.0.1 and Evaluation software V3.0 (Cytiva, Uppsala, Sweden).
HBS-P+ (Cytiva, Uppsala, Sweden), supplemented with 1% BSA (Sigma, Dorset, UK) was used as running buffer as well as for ligand and analyte dilutions. Supernatants containing IgG were diluted in running buffer to 1 μg/mL. At the start of each cycle, antibodies were loaded onto Fc2, Fc3 and Fc4 of an anti-human IgG CM5 sensor chip (Cytiva, Little Chalfont, UK). Ig were captured at a flow rate of […] to give an immobilization level (RL) of ˜60 RU. The surface was then allowed to stabilize.

T1 sequence (P54756 25-573 limits assumed): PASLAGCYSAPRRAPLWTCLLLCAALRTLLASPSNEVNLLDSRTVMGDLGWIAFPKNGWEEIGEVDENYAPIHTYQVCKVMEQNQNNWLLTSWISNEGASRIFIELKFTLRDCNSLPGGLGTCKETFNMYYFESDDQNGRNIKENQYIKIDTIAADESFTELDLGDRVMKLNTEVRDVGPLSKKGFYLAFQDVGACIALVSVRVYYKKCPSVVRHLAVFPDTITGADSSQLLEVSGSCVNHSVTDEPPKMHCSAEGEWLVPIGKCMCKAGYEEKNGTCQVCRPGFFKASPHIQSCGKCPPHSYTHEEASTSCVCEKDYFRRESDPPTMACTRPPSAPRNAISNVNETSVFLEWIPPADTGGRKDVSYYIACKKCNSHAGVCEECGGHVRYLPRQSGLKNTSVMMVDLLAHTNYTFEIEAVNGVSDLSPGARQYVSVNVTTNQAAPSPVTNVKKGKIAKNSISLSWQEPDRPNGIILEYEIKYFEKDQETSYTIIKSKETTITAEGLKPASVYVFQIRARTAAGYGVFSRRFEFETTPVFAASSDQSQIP

Binder	Kd [nM]	Relative KD	koff [s⁻¹]
VH1/VK0 (antibody, human IgG1, kappa, V domains shown, tested as HEK supernatant; also called control antibody (humanized VH1 heavy chain with chimeric light chain)) VH: EVTLVESGGGLVQPGGSRKLSCAASGFTFSTFGIHWVRQAPGKGLEWVAYISGASTTIYYADTVKGRFTISRDNSKNTLYLQMNSLRSEDTAMYYCARYGTSFPYGLDYWGQGTSVTVSS VL: DIVMTQSPGSLAVSLGQRATISCKASQSVDYDGDSYMNWYQQKPGQPPKLLIYGASNLESGIPARFSGSGSGTDFTLNIHPVEEEDAASYYCQQSNEDPFTFGSGTKLEIKR	1.04	0.78	0.00127
VH6/VK4 humanized 11C12 antibody (antibody, human IgG1, kappa, V domains shown, Human IgG1/kappa; tested as HEK293 EBNA supernatant; also called H6K4) VH: EVQLVESGGGLVQPGGSLKLSCAASGFTFSTFGIHWVRQAPGKGLEWVASISGASTTIYYADSVKGRFTISRDNSKNTLYLQMNSLRAEDTAVYYCARYGTSFPYGLDYWGQGTLVTVSS VL: DIVMTQSPDSLAVSLGERATINCKSSQSVDYDGDSYMNWYQQKPGKAPKLLIYGASNLESGIPDRFSGSGSGTDFTLTISRLEPEDAASYYCQQSNEDPFTFGQGTKLEIKR	9.76	7.34	0.209
VH3/VK5 humanized 11C12 antibody (antibody, human IgG1, kappa, Human IgG1/kappa; tested as HEK293 EBNA supernatant; also called H3K5) heavy: not shown light: DIVMTQSPDSLAVSLGERATINCKSSQSVDYDGDSYMNWYQQKPGKAPKLLIYGASNLESGIPDRFSGSGSGTDFTLTISRLEPEDAAVYYCQQSNEDPFTFGQGTKLEIKRTVAAPSVFIFPPSDEQLKSGTASVVCLLNNFYPREAKVQWKVDNALQSGNSQESVTEQDSKDSTYSLSSTLTLSKADYEKHKVYACEVTHQGLSSPVTKSFNRGEC	1.1	0.83	0.00143
VH6/VK1 humanized 11C12 antibody (antibody, human IgG1, kappa, V domains shown, Human IgG1/kappa; tested as HEK293 EBNA supernatant; also called H6K1) VH: EVQLVESGGGLVQPGGSLKLSCAASGFTFSTFGIHWVRQAPGKGLEWVASISGASTTIYYADSVKGRFTISRDNSKNTLYLQMNSLRAEDTAVYYCARYGTSFPYGLDYWGQGTLVTVSS VL: DIVMTQSPGSLAVSLGERATINCKASQSVDYDGDSYMNWYQQKPGKAPKLLIYGASNLESGIPDRFSGSGSGTDFTLTISRLEEEDAASYYCQQSNEDPFTFGQGTKLEIKR	10	7.52	0.165
VH2/VK5 humanized 11C12 antibody (antibody, human IgG1, kappa, Human IgG1/kappa; tested as HEK293 EBNA supernatant; also called H2K5) heavy: not shown light: DIVMTQSPDSLAVSLGERATINCKSSQSVDYDGDSYMNWYQQKPGKAPKLLIYGASNLESGIPDRFSGSGSGTDFTLTISRLEPEDAAVYYCQQSNEDPFTFGQGTKLEIKRTVAAPSVFIFPPSDEQLKSGTASVVCLLNNFYPREAKVQWKVDNALQSGNSQESVTEQDSKDSTYSLSSTLTLSKADYEKHKVYACEVTHQGLSSPVTKSFNRGEC	1.05	0.79	0.0014
VH6/VK3 humanized 11C12 antibody (antibody, human IgG1, kappa, V domains shown, Human IgG1/kappa; tested as HEK293 EBNA supernatant; also called H6K3) VH: EVQLVESGGGLVQPGGSLKLSCAASGFTFSTFGIHWVRQAPGKGLEWVASISGASTTIYYADSVKGRFTISRDNSKNTLYLQMNSLRAEDTAVYYCARYGTSFPYGLDYWGQGTLVTVSS VL: DIVMTQSPDSLAVSLGERATINCKASQSVDYDGDSYMNWYQQKPGKAPKLLIYGASNLESGIPDRFSGSGSGTDFTLTISRLEPEDAAVYYCQQSNEDPFTFGQGTKLEIKR	6.52	4.9	0.341
VH6/VK2 humanized 11C12 antibody (antibody, human IgG1, kappa, V domains shown, Human IgG1/kappa; tested as HEK293 EBNA supernatant; also called H6K2) VH: EVQLVESGGGLVQPGGSLKLSCAASGFTFSTFGIHWVRQAPGKGLEWVASISGASTTIYYADSVKGRFTISRDNSKNTLYLQMNSLRAEDTAVYYCARYGTSFPYGLDYWGQGTLVTVSS VL: DIVMTQSPDSLAVSLGERATINCKASQSVDYDGDSYMNWYQQKPGKAPKLLIYGASNLESGIPDRFSGSGSGTDFTLTISRLEPEDAASYYCQQSNEDPFTFGQGTKLEIKR	9.49	7.14	0.165
VH6/VK5 humanized 11C12 antibody (antibody, human IgG1, kappa, V domains shown, Human IgG1/kappa; tested as HEK293 EBNA supernatant; also called H6K5) VH: EVQLVESGGGLVQPGGSLKLSCAASGFTFSTFGIHWVRQAPGKGLEWVASISGASTTIYYADSVKGRFTISRDNSKNTLYLQMNSLRAEDTAVYYCARYGTSFPYGLDYWGQGTLVTVSS VL: DIVMTQSPDSLAVSLGERATINCKSSQSVDYDGDSYMNWYQQKPGKAPKLLIYGASNLESGIPDRFSGSGSGTDFTLTISRLEPEDAAVYYCQQSNEDPFTFGQGTKLEIKR	7.1	5.34	0.285

The remaining lines, values ahead:

Kd [nM]	Relative KD	koff [s⁻¹]	Binder
0.971	0.73	0.00126	VH2/VK2 humanized 11C12 antibody (antibody, human IgG1, kappa, Human IgG1/kappa; tested as HEK293 EBNA supernatant; also called H2K2) heavy: not shown light: DIVMTQSPDSLAVSLGERATINCKASQSVDYDGDSYMNWYQQKPGKAPKLLIYGASNLESGIPDRFSGSGSGTDFTLTISRLEPEDAASYYCQQSNEDPFTFGQGTKLEIKRTVAAPSVFIFPPSDEQLKSGTASVVCLLNNFYPREAKVQWKVDNALQSGNSQESVTEQDSKDSTYSLSSTLTLSKADYEKHKVYACEVTHQGLSSPVTKSFNRGEC
1.03	0.77	0.0014	VH5/VK5 humanized 11C12 antibody (antibody, human IgG1, kappa, V domains shown, Human IgG1/kappa; tested as HEK293 EBNA supernatant; also called H5K5) VH: EVQLVESGGGLVQPGGSLKLSCAASGFTFSTFGIHWVRQAPGKGLEWVAYISGASTTIYYADSVKGRFTISRDNSKNTLYLQMNSLRAEDTAVYYCARYGTSFPYGLDYWGQGTLVTVSS VL: DIVMTQSPDSLAVSLGERATINCKSSQSVDYDGDSYMNWYQQKPGKAPKLLIYGASNLESGIPDRFSGSGSGTDFTLTISRLEPEDAAVYYCQQSNEDPFTFGQGTKLEIKR
0.985	0.74	0.00132	VH2/VK3 humanized 11C12 antibody (antibody, human IgG1, kappa, Human IgG1/kappa; tested as HEK293 EBNA supernatant; also called H2K3) heavy: not shown light: DIVMTQSPDSLAVSLGERATINCKASQSVDYDGDSYMNWYQQKPGKAPKLLIYGASNLESGIPDRFSGSGSGTDFTLTISRLEPEDAAVYYCQQSNEDPFTFGQGTKLEIKRTVAAPSVFIFPPSDEQLKSGTASVVCLLNNFYPREAKVQWKVDNALQSGNSQESVTEQDSKDSTYSLSSTLTLSKADYEKHKVYACEVTHQGLSSPVTKSFNRGEC
0.917	0.69	0.00126	VH2/VK4 humanized 11C12 antibody (antibody, human IgG1, kappa, Human IgG1/kappa; tested as HEK293 EBNA supernatant; also called H2K4) heavy: not shown light: DIVMTQSPDSLAVSLGERATINCKSSQSVDYDGDSYMNWYQQKPGKAPKLLIYGASNLESGIPDRFSGSGSGTDFTLTISRLEPEDAASYYCQQSNEDPFTFGQGTKLEIKRTVAAPSVFIFPPSDEQLKSGTASVVCLLNNFYPREAKVQWKVDNALQSGNSQESVTEQDSKDSTYSLSSTLTLSKADYEKHKVYACEVTHQGLSSPVTKSFNRGEC
0.996	0.75	0.00137	VH4/VK5 humanized 11C12 antibody (antibody, human IgG1, kappa, V domains shown, Human IgG1/kappa; tested as HEK293 EBNA supernatant; also called H4K5) VH: EVQLVESGGGLVQPGGSLKLSCAASGFTFSTFGIHWVRQAPGKGLEWVAYISGASTTIYYADTVKGRFTISRDNSKNTLYLQMNSLRAEDTAVYYCARYGTSFPYGLDYWGQGTLVTVSS VL: DIVMTQSPDSLAVSLGERATINCKSSQSVDYDGDSYMNWYQQKPGKAPKLLIYGASNLESGIPDRFSGSGSGTDFTLTISRLEPEDAAVYYCQQSNEDPFTFGQGTKLEIKR
0.884	0.66	0.00123	VH3/VK1 humanized 11C12 antibody (antibody, human IgG1, kappa, Human IgG1/kappa; tested as HEK293 EBNA supernatant; also called H3K1) heavy: not shown light: DIVMTQSPGSLAVSLGERATINCKASQSVDYDGDSYMNWYQQKPGKAPKLLIYGASNLESGIPDRFSGSGSGTDFTLTISRLEEEDAASYYCQQSNEDPFTFGQGTKLEIKRTVAAPSVFIFPPSDEQLKSGTASVVCLLNNFYPREAKVQWKVDNALQSGNSQESVTEQDSKDSTYSLSSTLTLSKADYEKHKVYACEVTHQGLSSPVTKSFNRGEC
0.854	0.64	0.00114	VH4/VK2 humanized 11C12 antibody (antibody, human IgG1, kappa, V domains shown, Human IgG1/kappa; tested as HEK293 EBNA supernatant; also called H4K2) VH: EVQLVESGGGLVQPGGSLKLSCAASGFTFSTFGIHWVRQAPGKGLEWVAYISGASTTIYYADTVKGRFTISRDNSKNTLYLQMNSLRAEDTAVYYCARYGTSFPYGLDYWGQGTLVTVSS VL: DIVMTQSPDSLAVSLGERATINCKASQSVDYDGDSYMNWYQQKPGKAPKLLIYGASNLESGIPDRFSGSGSGTDFTLTISRLEPEDAASYYCQQSNEDPFTFGQGTKLEIKR
1.01	0.76	0.00133	VH3/VK3 humanized 11C12 antibody (antibody, human IgG1, kappa, Human IgG1/kappa; tested as HEK293 EBNA supernatant; also called H3K3) heavy: not shown light: DIVMTQSPDSLAVSLGERATINCKASQSVDYDGDSYMNWYQQKPGKAPKLLIYGASNLESGIPDRFSGSGSGTDFTLTISRLEPEDAAVYYCQQSNEDPFTFGQGTKLEIKRTVAAPSVFIFPPSDEQLKSGTASVVCLLNNFYPREAKVQWKVDNALQSGNSQESVTEQDSKDSTYSLSSTLTLSKADYEKHKVYACEVTHQGLSSPVTKSFNRGEC
0.975	0.73	0.00129	VH4/VK1 humanized 11C12 antibody (antibody, human IgG1, kappa, V domains shown, Human IgG1/kappa; tested as HEK293 EBNA supernatant; also called H4K1) VH: EVQLVESGGGLVQPGGSLKLSCAASGFTFSTFGIHWVRQAPGKGLEWVAYISGASTTIYYADTVKGRFTISRDNSKNTLYLQMNSLRAEDTAVYYCARYGTSFPYGLDYWGQGTLVTVSS VL: DIVMTQSPGSLAVSLGERATINCKASQSVDYDGDSYMNWYQQKPGKAPKLLIYGASNLESGIPDRFSGSGSGTDFTLTISRLEEEDAASYYCQQSNEDPFTFGQGTKLEIKR
0.947	0.71	0.00127	VH5/VK1 humanized 11C12 antibody (antibody, human IgG1, kappa, V domains shown, Human IgG1/kappa; tested as HEK293 EBNA supernatant; also called H5K1) VH: EVQLVESGGGLVQPGGSLKLSCAASGFTFSTFGIHWVRQAPGKGLEWVAYISGASTTIYYADSVKGRFTISRDNSKNTLYLQMNSLRAEDTAVYYCARYGTSFPYGLDYWGQGTLVTVSS VL: DIVMTQSPGSLAVSLGERATINCKASQSVDYDGDSYMNWYQQKPGKAPKLLIYGASNLESGIPDRFSGSGSGTDFTLTISRLEEEDAASYYCQQSNEDPFTFGQGTKLEIKR
